Experiments:
[1] = molecular target: hCD37-LEL (Large Extracellular Loop; amino acids 107 to 242 of human CD37 with a 6xHis-tag) (human); test: ELISA, native hCD37-LEL coated on the plate, antibody at 5 µg/mL
[2] = molecular target: hCD37-Fc-LAGA (amino acids 107 to 235 of human CD37 fused to human IgG1 Fc-domain) (human); test: ELISA, denatured-reduced hCD37-Fc-LAGA coated on the plate, antibody at 5 µg/mL
[3] = molecular target: hCD37-ECD-Fc (amino acids 107 to 235 of human CD37 fused to murine IgG2a Fc-domain) (human); test: ELISA, native hCD37-ECD-Fc coated on the plate, antibody at 2.5 µg/mL
Chain of hCD37-ECD-Fc (amino acids 107 to 235 of human CD37 fused to murine IgG2a Fc-domain) (human) (chain, as listed by the source limits assumed): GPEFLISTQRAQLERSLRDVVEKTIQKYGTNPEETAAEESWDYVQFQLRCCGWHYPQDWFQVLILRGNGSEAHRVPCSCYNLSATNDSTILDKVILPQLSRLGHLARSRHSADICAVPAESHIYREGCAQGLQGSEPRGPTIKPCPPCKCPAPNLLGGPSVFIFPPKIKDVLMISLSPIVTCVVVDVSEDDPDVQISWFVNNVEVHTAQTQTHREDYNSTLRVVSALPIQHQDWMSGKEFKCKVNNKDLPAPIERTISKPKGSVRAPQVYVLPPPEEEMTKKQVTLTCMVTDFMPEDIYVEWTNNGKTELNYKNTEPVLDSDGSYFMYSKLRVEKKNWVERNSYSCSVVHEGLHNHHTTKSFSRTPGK

[4] = molecular target: hCD37-LEL (Large Extracellular Loop; amino acids 107 to 242 of human CD37 with a 6xHis-tag) (human); test: ELISA, native hCD37-LEL coated on the plate, antibody at 10 µg/mL
[5] = molecular target: hCD37-LEL (Large Extracellular Loop; amino acids 107 to 242 of human CD37 with a 6xHis-tag) (human); test: ELISA, denatured-reduced hCD37-LEL coated on the plate, antibody at 2.5 µg/mL
[6] = molecular target: hCD37-Fc-LAGA (amino acids 107 to 235 of human CD37 fused to human IgG1 Fc-domain) (human); test: ELISA, native hCD37-Fc-LAGA coated on the plate, purified antibody titrated (left panel)
[7] = molecular target: hCD37-LEL (Large Extracellular Loop; amino acids 107 to 242 of human CD37 with a 6xHis-tag) (human); test: ELISA, denatured hCD37-LEL coated on the plate, antibody at 2.5 µg/mL
[8] = molecular target: hCD37-LEL (Large Extracellular Loop; amino acids 107 to 242 of human CD37 with a 6xHis-tag) (human); test: ELISA, denatured-reduced hCD37-LEL coated on the plate, antibody at 5 µg/mL
[9] = molecular target: hCD37-Fc-LAGA (amino acids 107 to 235 of human CD37 fused to human IgG1 Fc-domain) (human); test: ELISA, native hCD37-Fc-LAGA coated on the plate, antibody at 5 µg/mL
[10] = molecular target: hCD37-Fc-LAGA (amino acids 107 to 235 of human CD37 fused to human IgG1 Fc-domain) (human); test: ELISA, denatured hCD37-Fc-LAGA coated on the plate, antibody at 5 µg/mL
[11] = molecular target: hCD37-ECD-Fc (amino acids 107 to 235 of human CD37 fused to murine IgG2a Fc-domain) (human); test: ELISA, denatured hCD37-ECD-Fc coated on the plate, antibody at 10 µg/mL
[12] = molecular target: hCD37-Fc-LAGA (amino acids 107 to 235 of human CD37 fused to human IgG1 Fc-domain) (human); test: ELISA, native hCD37-Fc-LAGA coated on the plate, antibody at 10 µg/mL
[13] = molecular target: hCD37-Fc-LAGA (amino acids 107 to 235 of human CD37 fused to human IgG1 Fc-domain) (human); test: ELISA, denatured-reduced hCD37-Fc-LAGA coated on the plate, antibody at 10 µg/mL
[14] = molecular target: hCD37-Fc-LAGA (amino acids 107 to 235 of human CD37 fused to human IgG1 Fc-domain) (human); test: ELISA, native hCD37-Fc-LAGA coated on the plate, antibody at 2.5 µg/mL
[15] = molecular target: hCD37-LEL (Large Extracellular Loop; amino acids 107 to 242 of human CD37 with a 6xHis-tag) (human); test: ELISA, native hCD37-LEL coated on the plate, antibody at 2.5 µg/mL
[16] = molecular target: hCD37-ECD-Fc (amino acids 107 to 235 of human CD37 fused to murine IgG2a Fc-domain) (human); test: ELISA, denatured hCD37-ECD-Fc coated on the plate, antibody at 5 µg/mL
[17] = molecular target: hCD37-Fc-LAGA (amino acids 107 to 235 of human CD37 fused to human IgG1 Fc-domain) (human); test: ELISA, denatured-reduced hCD37-Fc-LAGA coated on the plate, antibody at 2.5 µg/mL
[18] = molecular target: hCD37-LEL (Large Extracellular Loop; amino acids 107 to 242 of human CD37 with a 6xHis-tag) (human); test: ELISA, denatured hCD37-LEL coated on the plate, antibody at 5 µg/mL
[19] = molecular target: hCD37-ECD-Fc (amino acids 107 to 235 of human CD37 fused to murine IgG2a Fc-domain) (human); test: ELISA, native hCD37-ECD-Fc coated on the plate, antibody at 5 µg/mL
[20] = molecular target: hCD37-Fc-LAGA (amino acids 107 to 235 of human CD37 fused to human IgG1 Fc-domain) (human); test: ELISA, native hCD37-Fc-LAGA coated on the plate, antibody at 2.5 µg/mL; remark: listed apart in the source
[21] = molecular target: hCD37-Fc-LAGA (amino acids 107 to 235 of human CD37 fused to human IgG1 Fc-domain) (human); test: ELISA, denatured hCD37-Fc-LAGA coated on the plate, antibody at 2.5 µg/mL
[22] = molecular target: hCD37-LEL (Large Extracellular Loop; amino acids 107 to 242 of human CD37 with a 6xHis-tag) (human); test: ELISA, native hCD37-LEL coated on the plate, antibody at 5 µg/mL; remark: listed apart in the source
[23] = molecular target: hCD37-LEL (Large Extracellular Loop; amino acids 107 to 242 of human CD37 with a 6xHis-tag) (human); test: ELISA, native hCD37-LEL coated on the plate, antibody at 10 µg/mL; remark: listed apart in the source
[24] = molecular target: hCD37-Fc-LAGA (amino acids 107 to 235 of human CD37 fused to human IgG1 Fc-domain) (human); test: ELISA, denatured hCD37-Fc-LAGA coated on the plate, antibody at 10 µg/mL
[25] = molecular target: hCD37-LEL (Large Extracellular Loop; amino acids 107 to 242 of human CD37 with a 6xHis-tag) (human); test: ELISA, native hCD37-LEL coated on the plate, antibody at 2.5 µg/mL; remark: listed apart in the source
[26] = molecular target: hCD37-ECD-Fc (amino acids 107 to 235 of human CD37 fused to murine IgG2a Fc-domain) (human); test: ELISA, native hCD37-ECD-Fc coated on the plate, antibody at 10 µg/mL
[27] = molecular target: hCD37-ECD-Fc (amino acids 107 to 235 of human CD37 fused to murine IgG2a Fc-domain) (human); test: ELISA, denatured hCD37-ECD-Fc coated on the plate, antibody at 2.5 µg/mL
[28] = molecular target: hCD37-LEL (Large Extracellular Loop; amino acids 107 to 242 of human CD37 with a 6xHis-tag) (human); test: ELISA, denatured hCD37-LEL coated on the plate, purified antibody titrated
[29] = molecular target: hCD37-Fc-LAGA (amino acids 107 to 235 of human CD37 fused to human IgG1 Fc-domain) (human); test: ELISA, native hCD37-Fc-LAGA coated on the plate, antibody at 10 µg/mL; remark: listed apart in the source
[30] = molecular target: hCD37-LEL (Large Extracellular Loop; amino acids 107 to 242 of human CD37 with a 6xHis-tag) (human); test: ELISA, denatured-reduced hCD37-LEL coated on the plate, antibody at 10 µg/mL
[31] = molecular target: hCD37-LEL (Large Extracellular Loop; amino acids 107 to 242 of human CD37 with a 6xHis-tag) (human); test: ELISA, denatured hCD37-LEL coated on the plate, antibody at 10 µg/mL
[32] = molecular target: hCD37-Fc-LAGA (amino acids 107 to 235 of human CD37 fused to human IgG1 Fc-domain) (human); test: ELISA, native hCD37-Fc-LAGA coated on the plate, antibody at 5 µg/mL; remark: listed apart in the source

Chain of hCD37-Fc-LAGA (amino acids 107 to 235 of human CD37 fused to human IgG1 Fc-domain) (human) (chain, as listed by the source limits assumed): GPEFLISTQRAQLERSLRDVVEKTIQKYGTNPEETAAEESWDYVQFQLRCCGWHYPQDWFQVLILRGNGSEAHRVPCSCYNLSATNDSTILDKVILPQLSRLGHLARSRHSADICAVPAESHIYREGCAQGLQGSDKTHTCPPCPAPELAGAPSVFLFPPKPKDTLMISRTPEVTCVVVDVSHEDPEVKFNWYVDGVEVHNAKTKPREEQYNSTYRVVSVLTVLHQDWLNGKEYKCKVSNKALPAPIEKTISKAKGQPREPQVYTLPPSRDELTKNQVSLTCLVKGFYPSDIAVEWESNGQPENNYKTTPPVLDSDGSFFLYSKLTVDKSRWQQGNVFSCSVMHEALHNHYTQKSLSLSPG
Chain of hCD37-LEL (Large Extracellular Loop; amino acids 107 to 242 of human CD37 with a 6xHis-tag) (human) (chain, as listed by the source limits assumed): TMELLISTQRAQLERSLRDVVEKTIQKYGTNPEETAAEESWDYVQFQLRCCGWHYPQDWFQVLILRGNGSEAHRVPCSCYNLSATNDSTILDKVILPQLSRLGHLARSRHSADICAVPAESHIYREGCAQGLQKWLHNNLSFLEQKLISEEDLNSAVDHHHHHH

NCL-CD37 mouse monoclonal anti-CD37 antibody (clone CT1, Leica Biosystems)
ELISA absorbance at 450 nm [1]: 3
ELISA absorbance at 450 nm [2]: 3.2
ELISA absorbance at 450 nm [3]: 2.2
ELISA absorbance at 450 nm [4]: 2.7
ELISA absorbance at 450 nm [5]: 3.2
EC50 (read off the curve) [6]: 3 nM
ELISA absorbance at 450 nm [7]: 1.8
ELISA absorbance at 450 nm [8]: 3.2
ELISA absorbance at 450 nm [9]: 2.6
ELISA absorbance at 450 nm [10]: 3.1
ELISA absorbance at 450 nm [11]: 3.1
ELISA absorbance at 450 nm [12]: 2.8
ELISA absorbance at 450 nm [13]: 3.3
ELISA absorbance at 450 nm [14]: 2.1
ELISA absorbance at 450 nm [15]: 2
ELISA absorbance at 450 nm [16]: 3.1
ELISA absorbance at 450 nm [17]: 3.2
ELISA absorbance at 450 nm [18]: 2
ELISA absorbance at 450 nm [19]: 2.4
ELISA absorbance at 450 nm [20]: 2.4
ELISA absorbance at 450 nm [21]: 3.1
ELISA absorbance at 450 nm [22]: 2.4
ELISA absorbance at 450 nm [23]: 3
ELISA absorbance at 450 nm [24]: 3.2
ELISA absorbance at 450 nm [25]: 3
ELISA absorbance at 450 nm [26]: 2.7
ELISA absorbance at 450 nm [27]: 3.1
EC50 (read off the curve) [28]: 0.1 nM
ELISA absorbance at 450 nm [29]: 2.9
ELISA absorbance at 450 nm [30]: 3.3
ELISA absorbance at 450 nm [31]: 2.8
ELISA absorbance at 450 nm [32]: 2.5

Source: patent US20180244795A1
